Consider three substances from PMC10588329.

Assay [1] concerns the target CaMKII^L308BzF (human) (UniProt Q9UQM7). Description: mass photometry.
For assay [2] the target is unchanged. The experiment in a line: SEC.
For assay [3] the target is unchanged. The experiment in a line: cross-linking.
In assay [4] the target is Human wild-type CaMKII α (CaMKII^WT) (human) (UniProt Q9UQM7). Description: mass photometry.

Sequence of UniProt Q9UQM7 (Q9UQM7 6-478): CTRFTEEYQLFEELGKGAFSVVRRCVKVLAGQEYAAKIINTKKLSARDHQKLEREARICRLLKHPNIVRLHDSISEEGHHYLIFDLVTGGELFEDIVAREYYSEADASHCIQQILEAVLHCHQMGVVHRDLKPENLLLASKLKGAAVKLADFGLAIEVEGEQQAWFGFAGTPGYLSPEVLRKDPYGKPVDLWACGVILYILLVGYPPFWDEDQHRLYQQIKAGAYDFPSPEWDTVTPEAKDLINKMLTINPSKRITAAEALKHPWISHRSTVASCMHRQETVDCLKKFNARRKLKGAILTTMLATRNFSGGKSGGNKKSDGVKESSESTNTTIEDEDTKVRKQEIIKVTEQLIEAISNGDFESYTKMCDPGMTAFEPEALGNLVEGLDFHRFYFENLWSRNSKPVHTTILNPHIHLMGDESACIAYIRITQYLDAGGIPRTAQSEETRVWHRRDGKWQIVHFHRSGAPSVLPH

Consider “CaMKII^L308BzF (from UniProt Q9UQM7 6-478) (enzyme)”, for which the stoichiometry N with CaMKII^L308BzF (human) [1] and in the assay with CaMKII^L308BzF (human) [2] was 12 subunits each time.
For the substance “His-tagged Calmodulin (Calbiochem) (from UniProt P0DP23 1-149) (natural protein)”, in the assay with CaMKII^L308BzF (human) [1], the stoichiometry N (Calmodulin per CaMKII dodecamer) worked out at 12. Further, the Kd in the assay with CaMKII^L308BzF (human) [3] was determined as 2500 nM.
In assay [4], “Human Calmodulin (self-made) (from UniProt P0DP23 1-149) (natural protein)” displayed a stoichiometry N (Calmodulin per CaMKII dodecamer) of 5 and a stoichiometry N (Calmodulin per CaMKII holoenzyme) of 6.
